The target in assay [1] is T1, human CD137 on cells (human, UniProt Q07011 24-255). Description: cell-based or functional assay.
Assay [2] deals with T2, human 5T4 on cells (human, UniProt Q13641 32-420).
T2 construct: also called TPBG; hu5T4
T2 sequence: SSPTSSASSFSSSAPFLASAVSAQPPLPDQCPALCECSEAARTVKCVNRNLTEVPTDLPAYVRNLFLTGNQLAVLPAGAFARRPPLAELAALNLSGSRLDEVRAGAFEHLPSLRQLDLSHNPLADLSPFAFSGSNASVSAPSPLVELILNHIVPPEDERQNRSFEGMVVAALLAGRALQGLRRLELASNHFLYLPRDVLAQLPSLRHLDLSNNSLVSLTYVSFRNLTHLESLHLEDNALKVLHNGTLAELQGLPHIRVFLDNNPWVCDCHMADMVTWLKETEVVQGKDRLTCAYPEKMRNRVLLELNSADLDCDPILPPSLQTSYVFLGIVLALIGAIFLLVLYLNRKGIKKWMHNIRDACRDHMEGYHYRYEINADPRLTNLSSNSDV
Description: flow cytometry, CHO-K1 cells expressing human 5T4, labelled anti-human IgG secondary, MFI (mean). As for the experimental part:
(§1) Binding studies were performed by standard flow cytometry-based staining procedures two cell lines expressing 5T4:CHO-K1 cells (obtained from Alligator) transduced with human or cynomolgus macaque 5T4 and SKOV-3 human ovarian adenocarcinoma cells which express (human) 5T4. All labeling and washes were performed in U-bottom 96-well plates in saline buffer with 0.1% BSA and 2 mM EDTA. Cell were plated at approximately 100,000 cells per well and incubated with a range of 100 nM to 0.05 nM concentrations of test molecules in […], for 30 minutes on ice. Cells were washed three times then incubated for another 30 min on ice with fluorescently-labeled secondary polyclonal antibody, F(ab′)² goat anti-human IgG (Jackson ImmunoResearch Laboratories). The cells were then washed twice and the samples acquired in a BD LSRII or a Symphony A3 flow cytometer. The sample files were analyzed using FlowJo software; the mean fluorescence intensity (MFI-mean) or median fluorescence intensity (MFI-median) of the live population of cells in each well was calculated after gating on live cells (forward vs side scatter). Nonlinear regression analysis to determine EC₅₀ values was performed in GraphPad Prism 6® graphing and statistics software.
(In general: Flow cytometry measures light scatter and fluorescence of single cells or particles in a stream.)

Assay [3] deals with T1, human CD137 on cells. The assay can be described thus: flow cytometry, CHO-K1 cells expressing human CD137, PE anti-human IgG Fc secondary, MFI (median). As for the experimental part: (§2) Binding studies on CHO-K1 cells lines expressing CD137 were performed by standard flow cytometry-based staining procedures. CHO-K1 cells (generated by Alligator) were transfected with human or cynomolgus macaque CD137. A typical experiment would label approximately 100,000 cells per well, in 96-well plates, with a range of 100 nM to 0.05 nM binding molecule in 50 μL of saline buffer with 2% BSA and 2 mM EDTA, for 30 min on ice, followed by washes and incubation with PE-labeled secondary antibody, goat anti-human IgG Fcγ ([…]), for 20 minutes on ice. Signal from bound molecules was detected using a LSR-II™ or a Symphony A3 flow cytometer (BD Biosciences) and analyzed by FlowJo flow cytometry analysis software. Median fluorescence intensity (MFI-median) of bound molecules on live cells was determined after exclusion of doublets cells. Nonlinear regression analysis to determine EC₅₀ values was performed in GraphPad Prism 6® graphing and statistics software.

Assay [4] addresses T3, cynomolgus CD137 on cells (cynomolgus macaque, UniProt A9YYE7 24-254).
T3 construct: whole, on cells; also called CHO-K1/cynomolgus CD137 cell line; cynomolgus monkey CD137 on CD3-stimulated primary CD8 T cells
Description: flow cytometry, CHO-K1 cells expressing cynomolgus CD137, PE anti-human IgG Fc secondary, MFI (median). The method, then:
as §2

Another assay deals with T4, cynomolgus 5T4 on cells (cynomolgus macaque, UniProt Q4R8Y9 35-420).
T4 construct: whole, on cells; also called CHO-K1/cynomolgus 5T4 transfectants
T4 sequence (looked up): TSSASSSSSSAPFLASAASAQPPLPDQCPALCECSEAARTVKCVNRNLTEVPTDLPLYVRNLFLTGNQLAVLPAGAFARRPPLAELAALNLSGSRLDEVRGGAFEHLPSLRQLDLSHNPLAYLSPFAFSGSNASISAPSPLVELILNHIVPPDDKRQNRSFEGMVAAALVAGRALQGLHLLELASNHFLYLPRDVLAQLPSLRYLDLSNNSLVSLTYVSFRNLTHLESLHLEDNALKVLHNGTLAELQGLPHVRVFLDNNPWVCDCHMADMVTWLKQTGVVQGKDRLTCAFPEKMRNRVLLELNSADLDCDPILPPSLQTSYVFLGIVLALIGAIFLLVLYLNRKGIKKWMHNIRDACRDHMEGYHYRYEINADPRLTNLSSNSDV
The assay can be described thus: flow cytometry, CHO-K1 cells expressing cynomolgus 5T4, labelled anti-human IgG secondary, MFI (median). As for the experimental part: as §1

In assay [5] the target is T2, human 5T4 on cells. The assay can be described thus: flow cytometry, SKOV-3 cells (endogenous human 5T4), labelled anti-human IgG secondary, MFI (mean). As for the experimental part: as §1

The values that follow come from patent US20190016816A1 (APTEVO RESEARCH AND DEVELOPMENT, published 2019).

Numbering of substitutions follows the chain as printed.

T1 sequence (Q07011 24-255 limits assumed): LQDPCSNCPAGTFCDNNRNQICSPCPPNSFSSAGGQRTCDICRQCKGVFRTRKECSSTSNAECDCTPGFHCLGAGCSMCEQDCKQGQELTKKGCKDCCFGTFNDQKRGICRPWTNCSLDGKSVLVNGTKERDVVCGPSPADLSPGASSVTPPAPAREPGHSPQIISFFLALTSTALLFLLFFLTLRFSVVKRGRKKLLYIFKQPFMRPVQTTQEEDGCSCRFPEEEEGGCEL
T3 sequence (A9YYE7 entry or part of it): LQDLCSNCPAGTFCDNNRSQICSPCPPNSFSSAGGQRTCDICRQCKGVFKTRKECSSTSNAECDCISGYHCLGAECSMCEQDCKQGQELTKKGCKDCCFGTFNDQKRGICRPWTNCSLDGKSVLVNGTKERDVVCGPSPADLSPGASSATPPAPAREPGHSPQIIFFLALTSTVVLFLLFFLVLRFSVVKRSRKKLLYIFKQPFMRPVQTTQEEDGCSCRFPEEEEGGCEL

B1: ALG.APV-191 (bispecific antibody)
chain: EVQLLESGGGLVQPGGSLRLSCAASGFTFDYGSMYWVRQAPGKGLEWVSSISSGSGSTYYADSVKGRFTISHDNSKNTLYLQMNSLRAEDTAVYYCARSSYYGSYYSIDYWGQGTLVTVSSGGGGSGGGGSGGGGSGGGGSDIQMTQSPSSLSASVGDRVTITCRASQSISSYLNWYQQKPGKAPKLLIYAASSLHSGVPSRFSGSGSGTDFTLTISSLQPEDFATYYCQQYYDNLPTFGQGTKLEIKSSEPKSSDKTHTCPPCPAPEAAGAPSVFLFPPKPKDTLMISRTPEVTCVVVDVSHEDPEVKFNWYVDGVEVHNAKTKPREEQYNSTYRVVSVLTVLHQDWLNGKEYKCAVSNKALPAPIEKTISKAKGQPREPQVYTLPPSRDELTKNQVSLTCLVKGFYPSDIAVEWESNGQPENNYKTTPPVLDSDGSFFLYSKLTVDKSRWQQGNVFSCSVMHEALHNHYTQKSLSLSPGSGGGGSGGGGSGGGGSPSEVQLLESGGGLVQPGGSLRLSCAASGFTFSSYAMSWVRQAPGKCLEWVSAISGSGGSTYYADSVKGRFTISRDNSKNTLYLQMNSLRAEDTAVYYCARYYGGYYSAWMDYWGQGTLVTVSSGGGGSGGGGSGGGGSGGGGSDIQMTQSPSSLSASVGDRVTITCRASQSISSFLNWYQQKPGKAPKLLIYAASSLQSGVPSRFSGSGSGTDFTLTISSLQPEDFATYYCQQTYGYLHTFGCGTKLEIKS
notes: Optimized ADAPTIR scFv-Fc-scFv homodimer
In the case of B1, the “CD137 reporter assay with HCC1143 cells, EC50 against ALG.APV-006 and ALG.APV-004” value (“CD137 reporter assay with HCC1143 cells” for short) with human CD137 on cells [1] was ≤ 6 fold lower EC50. In addition, the concentration giving a half-maximal response (EC50) with human 5T4 on cells [2] was found to be 10.9 nM; in the assay with human CD137 on cells [3], 1.1 nM; in assay [4] it was 1.7 nM; with cynomolgus 5T4 on cells, 22 nM. Besides, the “Maximum MFI” value with human 5T4 on cells [2] was 14100; in the assay with cynomolgus 5T4 on cells it was 25100.

B2: ALG.APV-198 (bispecific antibody)
chain: B1 chain with D30S, Y31H, H196Q, T527D, S529E, S670R, F672A, S748R
notes: as for B1
Turning to B2, the “CD137 reporter assay with HCC1143 cells” value with human CD137 on cells [1] is ≤ 6 fold lower EC50. In addition, the EC50 was determined as 3.1 nM with human 5T4 on cells [2]; 1 nM in the assay with human CD137 on cells [3]; 1.8 nM with human 5T4 on cells [5]; 1.8 nM in assay [4]; 7 nM with cynomolgus 5T4 on cells. The figures for the “Maximum MFI” value with human 5T4 on cells [2], in the assay with human 5T4 on cells [5] and with cynomolgus 5T4 on cells were 13200, 1070 and 20600, respectively.

B3: ALG.APV-196 (bispecific antibody)
chain: B1 chain with D30S, H196Q, T527D, S529E, S670R, F672A, S748R
notes: as for B1
With B3, in the assay with human CD137 on cells [1], the “CD137 reporter assay with HCC1143 cells” value was ≤ 6 fold lower EC50. The concentration for a half-maximal effect (EC50) was 3.4 nM with human 5T4 on cells [2]; 0.9 nM in the assay with human CD137 on cells [3]; 1.7 nM in the assay with human 5T4 on cells [5]; 1.8 nM in assay [4]; 7 nM with cynomolgus 5T4 on cells. The “Maximum MFI” value worked out at 13500 with human 5T4 on cells [2], 1130 with human 5T4 on cells [5] and 21100 in the assay with cynomolgus 5T4 on cells.

One may read the EC50 as the concentration needed to bring the measured effect to its halfway point. High values mean a need for much substance, low ones an effect from little substance.
